Experimental data published in the nanobody polyreactivity screen of Harvey et al. (2022).

Test: yeast display, Sf9 membrane polyspecificity reagent, FACS + sequencing; frameworks hold sequencing errors
Procedure, shortened: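 Nanobodies from a synthetic yeast display library (Saccharomyces cerevisiae BJ5465), induced 36–48 hours with galactose, were stained 1 hour at 4 °C with 10% biotinylated, detergent-solubilized Sf9 membrane reagent, enriched on streptavidin microbeads, then FACS-sorted. Anti-HA (expression) and streptavidin (reagent binding) fluorescence set low and high (top ~1%) gates. Polyreactivity labels come from the gate of origin. Genes were colony-PCR amplified, MiSeq 2 × 250 sequenced and filtered by CDR length.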

Sequence | polyreactivity (PSR sort gate)
QVQLVESGGGLVQAGGSLRLSCAASGFIFNYYAMGWYRQAPGKEREFVAAITWRGGSTNYADSVKGRFTISRDNAKNTVYLQMNSLKPEDTAVYYCAAYSVWGGSYLALDYWGQGTQVTVSS | low polyreactivity
QVQLVESGGGLVQAGGSLRLSCAASGFIFNYYGMGWYRQAPGKERELVATISGSGGSTYYADSVKGRFTISRDNAKNTVYLQMNSLKPEDTAVYYCNRYPPVHNVGEAYGTLHGYYWGQGTQVTVSS | low polyreactivity
QVQLVESGGGLVQAGGSLRLSCAASGFIFNYYVMGWYRQAPGKERELVATISWRGGRTYYADSVKGRFTISRDNAKNTVYLQMKSLKPEDTAVFYCAKESYYFTRYDYWGQGTQVTVSS | low polyreactivity
QVQLVESGGGLVQAGGSLRLSCAASGFIFPANAMGWSRQAPGKERELVAAINYSGGSTYYADSVKGRFTISRDNAKNTVYLQMNSLKPEDTAVYYCNADFYVVGVTTVDLSGYDSWGQGTQVTVSS | low polyreactivity
QVQLVESGGGLVQAGGSLRLSCAASGFIFPAYAMGWYRQAPGKERELVAAITSNGGSTYYADSVKGRFTITRDNAKNTVYLQMNSLKPEDTAVYYCNADWYWDYGWVYPEYYYWGQGTQVTVSS | high polyreactivity
QVQLVESGGGLVQAGGSLRLSCAASGFIFPFYVRGWYRQAPGKERELVAAINTGGSTYYADSVKGRFTISRDNAKNTVYLQMNSLKPEDTAVYYCAAKSRVKKYYFYGYNYWGQGTQVTVSS | high polyreactivity
QVQLVESGGGLVQAGGSLRLSCAASGFIFPGNMGWYRQAPGKERELVAAISWSGGSTRYADSVKGRFTISRDNAKNTVYLQMNSLKPEDTAVYYCAASLSGKRFTKRYYWGQGTQVTVSS | high polyreactivity
QVQLVESGGGLVQAGGSLRLSCAASGFIFPGYAMGWYRQAPGKERELVAAISWSGGRTYYADSVKGRFTISRDNAKNTVYLQMNSLKPEDTAVYYCNARYRQITYEYDYWGQGTQVTVSS | high polyreactivity
QVQLVESGGGLVQAGGSLRLSCAASGFIFPLYTMGWDRQAPGKERELVAAISVTGGSTYYADSVKGRFTISRDNAKNTVYLQMNSLKPEDTAVYYCAADLYYIWVYGYSSAMDYWGQGTQVTLSS | high polyreactivity
QVQLVESGGGLVQAGGSLRLSCAASGFIFPSNAMGRYRQAPGKERELVAAISSRGTRTYYADSVKGRFTISRDNAKNTVYLQMNCLKPEDTAVYYCAKYGYWGQGTQVTVSS | high polyreactivity
QVQLVESGGGLVQAGGSLRLSCAASGFIFPTYAMGWYRQAPGKERELVAAITWSGSDTYYADSVKGRFTISRDNAKNTVYLQMNRLKPEDTAVYYCAAEVSKYGWRYYYWGQGTQVTVSS | low polyreactivity
QVQLVESGGGLVQAGGSLRLSCAASGFIFPTYAMGWYRQAPGKERELVATITTNAGGTHYADSVKGRFTISRDNAKNNVYIQMNSLKPEDTAVYYCNAYGPNIYSSRYDYWGQGTQVTVSS | low polyreactivity
QVQLVESGGGLVQAGGSLRLSCAASGFIFPYYDMGWYRQAPGKERELVADIDSSGGTTYYADSVKGRFTISRDNAKNTVYLQMNSLKPEDTAVYYCAATYQAWTWYPYYVIYDYWGQGTQVTVSS | high polyreactivity
QVQLVESGGGLVQAGGSLRLSCAASGFIFPYYGMGWYRQAPGKERELVATISRSGGRTYYADSVKGRFTISRDNAKNTVYLQMNSLKPEDTAVYYCARTTPYFYVDWGGYDYWGQGTQVTVSS | high polyreactivity
QVQLVESGGGLVQAGGSLRLSCAASGFIFQIYAMGWYRQAPGKERELVAAISSGGSTNYADSVKGRFTISRDNAKNTVYLQMNSLKPEDTAVYYCAAATHYWYFYSFKDKSGFRGYYWGQGTQVTVSS | high polyreactivity
QVQLVESGGGLVQAGGSLRLSCAASGFIFQKYVMGWSRQAPGKERELVAVISRSGDSTRYADSVKGRFTISRDNAKNTVYLQMNSLKPEDTAVFYCAAASAKFTGTGYYFWGQGTQVTVSS | high polyreactivity
QVQLVESGGGLVQAGGSLRLSCAASGFIFQPYVMGWYRQAPGKERELVAAISWNGVSTYYADSVKGRFTISRDNAKNTVYLQMNSLKPEDTAVYYCAASYRYVPGLNYWGQGTQVTVSS | low polyreactivity
QVQLVESGGGLVQAGGSLRLSCAASGFIFQRNAMGWYRQAPGKERELVAAIRSSGGTTYYADSVKGRFTISRDNAKNTVYLQMNSLKPEDTAVYYCAAVTTSKFNYWGQGSQVTVSS | low polyreactivity
QVQLVESGGGLVQAGGSLRLSCAASGFIFQVYAMGWYRQAPGKERELVAGISRTGGSTYYADSVKGRFTISRDNAKNTVYLQMNSLKPEDTAVYYCAKPYWGYYGYFTHNYWGQGTQVTVSS | high polyreactivity
QVQLVESGGGLVQAGGSLRLSCAASGFIFQYYAMGWYRQAPGKERELVAVIRSGGSTYYADSVKGRFTISRDNAKNTVYLQMNSLKPEDTAVYYCNARRTYLDRYNYWGQGTQVTVSS | high polyreactivity
QVQLVESGGGLVQAGGSLRLSCAASGFIFRAYAMGWYRQEPGKERELVAAISRGGGTYYADSVKGRFTISRDNAKNTVYLQMNSLKPEDTAVYYCAVDLLRRGFPTVVTTYDYWGQGTQVTVSS | high polyreactivity

Sequence | polyreactivity (PSR sort gate)
QVQLVESGGGLVQAGGSLRLSCAASGFIFRDNAMGWYRQAPGKERELVAAISSRGGSTYYADSVKGRFTISRDNAKNTVYLQMNSLKPEDTAVYYCAKRPYKSRVQLDSWGQGTQVTVSS | high polyreactivity
QVQLVESGGGLVQAGGSLRLSCAASGFIFRDYAMGWYRQAPGKERELVATISSS | low polyreactivity
QVQLVESGGGLVQAGGSLRLSCAASGFIFRFNAMGWYRQAPGKERQLVAAISGSGGITYYADSVKGRFTISRDNAKNTVYLQMNSLKPEDTAVYYCAARPLFGWRGYNYWGQGTQVTVSS | high polyreactivity
QVQLVESGGGLVQAGGSLRLSCAASGFIFRFYAMGWYRQAPGKERELVATISKRGGTTYYADSVKGRFTISRDNAKYTVYLQMNSLKPEDTAVYFCAVRLYLEMDYWGQGTQVTVSS | high polyreactivity
QVQLVESGGGLVQAGGSLRLSCAASGFIFRGYAMGWYRQAPGKERELVAAISRSGGSTYYADSVKGRFTISRDNAKNTVYLQMNSLKPEDTAVYYCAARNSPGFPGDYWGQGTQVTVSS | high polyreactivity
QVQLVESGGGLVQAGGSLRLSCAASGFIFRKYAMGWYRQAPGKERELVAAITNGGSTYADSVKGRFTISRDNAKNTVYLQMNSLKPEDTAVYYCNARYRPRQRPEGGYWGQGTQVTVSS | high polyreactivity
QVQLVESGGGLVQAGGSLRLSCAASGFIFRNYVMGWYRQAPGKERELVAAINWSTGTTNYADSVKGGFTISRDNAKNTVYLQMNSLKPEDTAVYYCNARYRLRYIYSLRYDYWGQGTQVTVSS | high polyreactivity
QVQLVESGGGLVQAGGSLRLSCAASGFIFRPYAMGWYRQAPGKERELVAAITGGGSTYYADSVKGRFTISRDNAKNTVYLQMNSLKPEDTAVYYCAKDKGRAYFGPSPYDYWGQGTQVTVSS | low polyreactivity
QVQLVESGGGLVQAGGSLRLSCAASGFIFRPYAMGWYRQAPGKERELVAALTGGGSTYYADSVKGRFTISRDNAKNTVYLQMNSLKPEDTAVYYCNADRRRRSGGFAAWHFQRNDYWGQGTQVSVSS | low polyreactivity
QVQLVESGGGLVQAGGSLRLSCAASGFIFRRNAMGRYRQAPGKERELVAAITSRGGSTYYADSVKGRFTISRDNAKHTVYLQMNSLKPEDTAVYYCAAKFPSRFYSFVQYYYWGQVTQVTVSS | high polyreactivity
QVQLVESGGGLVQAGGSLRLSCAASGFIFRRNAMGWYRQAPGKERELVAAIRQRGDSTYYADSVKGRFTISRDNAKITVYLQMNSLKPEDTAVYYCNAVAKLYYWRYDYWGQGTQVTVSS | low polyreactivity
QVQLVESGGGLVQAGGSLRLSCAASGFIFRRYAMGWYRPAPGKEREFVAAISWSGATTYYADSVKGRFTISRDNAKITVYLQMNSLKPEDTAVYYCAKDVRRSPSTWDNYWGQGTQVTVSS | high polyreactivity
QVQLVESGGGLVQAGGSLRLSCAASGFIFRRYAMGWYRQAPGKERELVAAISRTGSTNYADSVKGRFTISRDNAKNTVYLKMNSLKPDDTAVYYCNARYITFNGYGYGYWGQGTQVTVSS | high polyreactivity
QVQLVESGGGLVQAGGSLRLSCAASGFIFRRYARGWYRQAPGKERELVASISWRGGSTYYADSVKGRFTISRDNAKNTVYLQMNSLKPEDTAVYYCAARIGATYWVDWTHRAYDYWGQGTQVTVSS | high polyreactivity
QVQLVESGGGLVQAGGSLRLSCAASGFIFRRYVMGWYRQAPGKERELVAAISYGGGSTYYADSVKGRFTISRDNAKITVYLQMNSLKPEDTAVYYCAKLYYRHLYEYDYWGQGTQVTVSS | high polyreactivity
QVQLVESGGGLVQAGGSLRLSCAASGFIFRSNAMGWYRQAPGKERELVAAITRGDSTNYADSVKGRFTITRDNAKNTDYLQKNSLKPEDTAVYYCAAGRSYHSGVHHYRKRNYWGQGTQVTVSS | high polyreactivity
QVQLVESGGGLVQAGGSLRLSCAASGFIFRSNTMGWYRQAPGKERELVAAITWSGGNTYYADSVKGRFTISRDNAKNTVYLQMNSLKPEDTAVYYCATVTRLYRHGYWGQGTQVTVSS | high polyreactivity
QVQLVESGGGLVQAGGSLRLSCAASGFIFRSYVMGWYRQAPGKEMEFVAVITSSGGRTYYADSVKGRFTISRDNAKNTVYLQMNSLKPEDTAVYYCAATRRYPPRRVWYDYWGQGTQVTVSS | high polyreactivity
QVQLVESGGGLVQAGGSLRLSCAASGFIFRTYAMGWYRQAPGKERELVATITGDGSTNYADSVKGRFTISRDHAKNTVYLQMNSLKPEDTAVYYGSRDDRLAGDYWGQGSQVTVSS | low polyreactivity
QVQLVESGGGLVQAGGSLRLSCAASGFIFRVNAMGWYRQATGKERELVAAISASGGTTYYADSVKGRFTISRDIAKNTVYLQMNSLKPEDTAVYYCNAPSRTRYDYWGQGTQVTVSS | low polyreactivity
